Our source for the ΔTm values is publication PMC6911004, “Fragment-based screening identifies molecules targeting the substrate-binding ankyrin repeat domains of tankyrase” (Scientific Reports, 2019).

The target of the assay is T1, TNKS2 ARC5 (Homo sapiens, UniProt Q9H2K2).
T1 construct: followed by TNKS2 ARC5 (1 μL, 100 μM stock); His6-GST; made in house; host or cells: E. coli
T1 sequence (Q9H2K2 whole entry, looked up): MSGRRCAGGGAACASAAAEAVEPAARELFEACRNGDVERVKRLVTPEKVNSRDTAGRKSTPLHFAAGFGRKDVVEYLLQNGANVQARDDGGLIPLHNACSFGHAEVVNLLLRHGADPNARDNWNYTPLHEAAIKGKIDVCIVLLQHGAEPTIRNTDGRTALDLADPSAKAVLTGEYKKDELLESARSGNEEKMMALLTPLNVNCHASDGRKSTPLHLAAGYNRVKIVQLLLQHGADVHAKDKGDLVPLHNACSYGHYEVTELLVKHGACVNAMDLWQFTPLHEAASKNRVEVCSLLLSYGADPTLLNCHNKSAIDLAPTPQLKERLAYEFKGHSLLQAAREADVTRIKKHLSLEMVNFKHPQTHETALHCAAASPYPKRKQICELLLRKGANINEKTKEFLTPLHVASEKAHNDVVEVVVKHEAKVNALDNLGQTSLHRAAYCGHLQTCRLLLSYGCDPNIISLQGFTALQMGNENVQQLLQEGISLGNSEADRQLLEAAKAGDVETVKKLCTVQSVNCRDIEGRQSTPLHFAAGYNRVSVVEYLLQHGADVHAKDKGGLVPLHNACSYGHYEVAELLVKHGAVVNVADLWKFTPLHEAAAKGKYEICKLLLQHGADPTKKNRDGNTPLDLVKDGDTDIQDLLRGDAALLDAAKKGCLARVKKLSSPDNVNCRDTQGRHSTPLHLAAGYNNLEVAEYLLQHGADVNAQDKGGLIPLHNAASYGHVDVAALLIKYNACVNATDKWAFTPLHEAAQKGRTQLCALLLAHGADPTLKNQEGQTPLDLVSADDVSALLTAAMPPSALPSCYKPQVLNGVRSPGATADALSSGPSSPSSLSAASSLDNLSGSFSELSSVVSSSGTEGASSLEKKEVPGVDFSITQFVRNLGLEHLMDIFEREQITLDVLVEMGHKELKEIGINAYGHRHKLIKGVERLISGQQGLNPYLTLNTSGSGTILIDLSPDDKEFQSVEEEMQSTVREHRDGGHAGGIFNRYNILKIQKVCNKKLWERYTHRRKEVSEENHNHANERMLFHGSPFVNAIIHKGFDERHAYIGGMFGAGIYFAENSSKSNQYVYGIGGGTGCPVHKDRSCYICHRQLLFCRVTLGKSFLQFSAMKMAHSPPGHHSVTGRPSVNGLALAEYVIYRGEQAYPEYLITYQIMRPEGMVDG
Kind of assay: Differential scanning fluorimetry (DSF, thermal shift). Type of assay: binding. Particulars: ARC 20 μM + 3BP2 TBM peptide 200 μM, inflection point method. The protocol:
Therefore, we chose TNKS2 ARC5 for screening by DSF, anticipating the largest signal window for measuring changes in Tm upon fragment binding.
We screened 1869 compounds in duplicate at a concentration of 500 μM, which we considered a reasonable compromise between having a sufficiently high concentration to identify weak binders while minimising the likelihood of false positives through fragment precipitation/aggregation and non-specific binding. The final DMSO concentration was 5%. We calculated melting temperatures using both the inflection point and the maximum peak of first derivative data methods. Both methods generally agreed, unless the melt curve was biphasic or misshapen, with slightly lower variability for the […] Tm determination method (see Materials and Methods for experimental and analysis details).
We determined the melting temperature for the unbound ARC (Tm, 0) from the mean of 12 reference melting curves per plate, with 5% DMSO only. We calculated the change in melting temperature (ΔTm) by subtracting the mean Tm, 0 from Tm, compound. We tested compounds in duplicate, defining fragments as hits if they conferred a ΔTm outside two standard deviations (2σ) from the mean, in one or both replicates. To check for consistency between plates, we ran triplicate peptide controls; however, we excluded peptide ΔTm values from the calculation of the mean ΔTm to avoid skewing the results. We observed mean ΔTm values (IP/1st derivative methods) of −0.127/−0.331 °C and σ as 0.997/1.19 °C. A hit cut-off of 2σ gave absolute shifts of +1.87/+2.05 °C for compounds that stabilised and −2.13/−2.71 °C for compounds that destabilised the ARC (Fig. 2B).
For the screen, a C1000 thermal cycler (Bio-Rad) was used to record melt curves. SYPRO Orange was purchased as a 5000 × stock in DMSO from Sigma Aldrich. The ICR fragment library was available as 100 mM stocks in DMSO, and dispensed (25 nL) using an ECHO acoustic liquid handling system into white 384-well PCR plates (Framestar, 4titude). Wells were backfilled with DMSO (225 nL). Buffer (2.75 μL, 25 mM HEPES-NaOH pH 7.5, 100 mM NaCl, 2 mM TCEP) was added, followed by TNKS2 ARC5 (1 μL, 100 μM stock) and then SYPRO orange dye (1 μL, 25×). The plate was centrifuged after the addition of each reagent (1 min, 1000 × g). Final assay concentrations were as follows: TNKS2 ARC5 (20 μM); fragment (500 μM); SYPRO Orange dye (5×); DMSO (5% v/v) in a total volume of 5 μL. Peptide control wells (3BP2 TBM 16-mer, 200 μM, sequence LPHLQRSPPDGQSFRSW with C-terminal tryptophan added for photometric concentration measurements, the N-terminus acetylated and the C-terminus amide-capped) were plated in triplicate, and there were 12 blank wells per plate, with DMSO only (250 nL, 5% v/v). Melt curves were recorded from 20–95 °C, with the temperature ramped by 0.5 °C every 15 s. Data were analysed using Vortex (Dotmatics) software and melting temperatures calculated from both the inflection point and the maximum peak of 1st-derivative data. Data points were excluded if the melt curve was poor, i.e., if there was no fluorescence signal above baseline, high fluorescence intensity throughout, or if the melt curve was shallow (<1000 rfu difference between baseline and peak maximum). The unbound melting temperature was determined from the mean of 12 reference melting curves, with 5% DMSO only. The change in melting temperature (ΔTm) was calculated by subtracting the mean Tm, 0 from Tm, compound. Compounds were tested in duplicate, and fragments were defined as hits if they gave a ΔTm outwith 2 σ from the mean in one or both replicates.
For the experiment shown in Fig. 2A, ARC and 3BP2 TBM peptide concentrations were 20 and 200 μM, respectively, in 50 mM HEPES-NaOH pH 7.5, 100 mM NaCl, 2 mM TCEP and a total volume of 25 μL. SYPRO Orange was added at 5×. Data were recorded from 4–95 °C, with the temperature ramped by 0.5 °C every 15 s, using a CFX384 thermal cycler (Bio-Rad). […]

For the sequence “LPHLQRSPPDGQSFRSW [3BP2 16-mer peptide, 16-mer TBM peptide derived from 3BP2, W added for A280, N-terminus acetylated, C-terminus amide-capped; positive control, reference compound]”, the ΔTm was found to be 4.14 °C.
